In patent US20140213531A1 (POLYPHOR, published 2014):
Bridges are numbered along the chain shown (N, C = ends). [ ]: non-standard residue; d: D form. Nle = CCCC[C@H](N)C(=O)O

B1: Example 22 (peptide)
peptide: ICTXSDPPICR
HELM: PEPTIDE1{I.C.T.[Nle].S.D.P.P.I.C.R.[dP].P}$PEPTIDE1,PEPTIDE1,2:R3-10:R3|PEPTIDE1,PEPTIDE1,1:R1-13:R2$$$V2.0
SMILES: CCCC[C@@H]1NC(=O)[C@H]([C@@H](C)O)NC(=O)[C@@H]2CSSC[C@H](NC(=O)[C@H]([C@@H](C)CC)NC(=O)[C@@H]3CCCN3C(=O)[C@@H]3CCCN3C(=O)[C@H](CC(=O)O)NC(=O)[C@H](CO)NC1=O)C(=O)N[C@@H](CCCNC(=N)N)C(=O)N1CCC[C@@H]1C(=O)N1CCC[C@H]1C(=O)N[C@@H]([C@@H](C)CC)C(=O)N2
B2: Example 17 (peptide)
peptide: ICTKSDPPQCR
HELM: PEPTIDE1{I.C.T.K.S.D.P.P.Q.C.R.[dP].P}$PEPTIDE1,PEPTIDE1,2:R3-10:R3|PEPTIDE1,PEPTIDE1,1:R1-13:R2$$$V2.0
SMILES: CC[C@H](C)[C@@H]1NC(=O)[C@@H]2CCCN2C(=O)[C@H]2CCCN2C(=O)[C@H](CCCNC(=N)N)NC(=O)[C@@H]2CSSC[C@H](NC1=O)C(=O)N[C@@H]([C@@H](C)O)C(=O)N[C@@H](CCCCN)C(=O)N[C@@H](CO)C(=O)N[C@@H](CC(=O)O)C(=O)N1CCC[C@H]1C(=O)N1CCC[C@H]1C(=O)N[C@@H](CCC(N)=O)C(=O)N2
B3: Example 59 (peptide)
peptide: ICTXSDPPICR
HELM: PEPTIDE1{I.C.T.[Nle].S.D.P.P.I.C.R.[dP].P}$PEPTIDE1,PEPTIDE1,2:R3-10:R3|PEPTIDE1,PEPTIDE1,1:R1-13:R2$$$V2.0
SMILES: CCCC[C@@H]1NC(=O)[C@H]([C@@H](C)O)NC(=O)[C@@H]2CSSC[C@H](NC(=O)[C@H]([C@@H](C)CC)NC(=O)[C@@H]3CCCN3C(=O)[C@@H]3CCCN3C(=O)[C@H](CC(=O)O)NC(=O)[C@H](CO)NC1=O)C(=O)N[C@@H](CCCNC(=N)N)C(=O)N1CCC[C@@H]1C(=O)N1CCC[C@H]1C(=O)N[C@@H]([C@@H](C)CC)C(=O)N2
B4: Example 18 (peptide)
peptide: ICTKSDPPYCR
HELM: PEPTIDE1{I.C.T.K.S.D.P.P.Y.C.R.[dP].P}$PEPTIDE1,PEPTIDE1,2:R3-10:R3|PEPTIDE1,PEPTIDE1,1:R1-13:R2$$$V2.0
SMILES: CC[C@H](C)[C@@H]1NC(=O)[C@@H]2CCCN2C(=O)[C@H]2CCCN2C(=O)[C@H](CCCNC(=N)N)NC(=O)[C@@H]2CSSC[C@H](NC1=O)C(=O)N[C@@H]([C@@H](C)O)C(=O)N[C@@H](CCCCN)C(=O)N[C@@H](CO)C(=O)N[C@@H](CC(=O)O)C(=O)N1CCC[C@H]1C(=O)N1CCC[C@H]1C(=O)N[C@@H](Cc1ccc(O)cc1)C(=O)N2
B5: Example 37 (peptide)
peptide: XCTKSDPPICN
HELM: PEPTIDE1{[O=C([C@@H](N[*:1])C1CCCCC1)[*:2]].C.T.K.S.D.P.P.I.C.N.[dP].P}$PEPTIDE1,PEPTIDE1,2:R3-10:R3|PEPTIDE1,PEPTIDE1,1:R1-13:R2$$$V2.0
SMILES: CC[C@H](C)[C@@H]1NC(=O)[C@@H]2CCCN2C(=O)[C@@H]2CCCN2C(=O)[C@H](CC(=O)O)NC(=O)[C@H](CO)NC(=O)[C@H](CCCCN)NC(=O)[C@H]([C@@H](C)O)NC(=O)[C@@H]2CSSC[C@H](NC1=O)C(=O)N[C@@H](CC(N)=O)C(=O)N1CCC[C@@H]1C(=O)N1CCC[C@H]1C(=O)N[C@@H](C1CCCCC1)C(=O)N2
B6: Example 36 (peptide)
peptide: XCTKSDPPICY
HELM: PEPTIDE1{[Cha].C.T.K.S.D.P.P.I.C.Y.[dP].P}$PEPTIDE1,PEPTIDE1,2:R3-10:R3|PEPTIDE1,PEPTIDE1,1:R1-13:R2$$$V2.0
SMILES: CC[C@H](C)[C@@H]1NC(=O)[C@@H]2CCCN2C(=O)[C@@H]2CCCN2C(=O)[C@H](CC(=O)O)NC(=O)[C@H](CO)NC(=O)[C@H](CCCCN)NC(=O)[C@H]([C@@H](C)O)NC(=O)[C@@H]2CSSC[C@H](NC1=O)C(=O)N[C@@H](Cc1ccc(O)cc1)C(=O)N1CCC[C@@H]1C(=O)N1CCC[C@H]1C(=O)N[C@@H](CC1CCCCC1)C(=O)N2
B7: Example 55 (peptide)
peptide: ICTKSDPPQCR
HELM: PEPTIDE1{I.C.T.K.S.D.P.P.Q.C.R.[dP].P}$PEPTIDE1,PEPTIDE1,2:R3-10:R3|PEPTIDE1,PEPTIDE1,1:R1-13:R2$$$V2.0
SMILES: CC[C@H](C)[C@@H]1NC(=O)[C@@H]2CCCN2C(=O)[C@H]2CCCN2C(=O)[C@H](CCCNC(=N)N)NC(=O)[C@@H]2CSSC[C@H](NC1=O)C(=O)N[C@@H]([C@@H](C)O)C(=O)N[C@@H](CCCCN)C(=O)N[C@@H](CO)C(=O)N[C@@H](CC(=O)O)C(=O)N1CCC[C@H]1C(=O)N1CCC[C@H]1C(=O)N[C@@H](CCC(N)=O)C(=O)N2
B8: Example 65 (peptide)
peptide: XCTKSDPPYCY
HELM: PEPTIDE1{[O=C([C@@H](N[*:1])C1CCCCC1)[*:2]].C.T.K.S.D.P.P.Y.C.Y.[dP].P}$PEPTIDE1,PEPTIDE1,2:R3-10:R3|PEPTIDE1,PEPTIDE1,1:R1-13:R2$$$V2.0
SMILES: C[C@@H](O)[C@@H]1NC(=O)[C@@H]2CSSC[C@H](NC(=O)[C@H](Cc3ccc(O)cc3)NC(=O)[C@@H]3CCCN3C(=O)[C@@H]3CCCN3C(=O)[C@H](CC(=O)O)NC(=O)[C@H](CO)NC(=O)[C@H](CCCCN)NC1=O)C(=O)N[C@@H](Cc1ccc(O)cc1)C(=O)N1CCC[C@@H]1C(=O)N1CCC[C@H]1C(=O)N[C@@H](C1CCCCC1)C(=O)N2

Experiments:
Experiment in all cases: cell-based or functional assay
[1] = target: T1, CathepsinG, from human neutrophils (human, UniProt P08311 21-244)
T1 sequence (looked up): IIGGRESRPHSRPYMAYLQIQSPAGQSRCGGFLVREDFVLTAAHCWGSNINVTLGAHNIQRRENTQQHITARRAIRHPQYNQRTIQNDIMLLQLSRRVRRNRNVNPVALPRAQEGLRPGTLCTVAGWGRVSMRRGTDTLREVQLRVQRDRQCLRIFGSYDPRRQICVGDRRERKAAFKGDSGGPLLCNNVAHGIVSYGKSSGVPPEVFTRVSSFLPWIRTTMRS

[2] = target: Urokinase from human urine (human, UniProt P00749 21-431, limits assumed)
[3] = target: Tryptase, from human lung (human, UniProt Q15661 31-275, limits assumed)
[4] = target: T2, Elastase from human neutrophils (human, UniProt P08246 30-247, limits assumed)
T2 sequence (looked up): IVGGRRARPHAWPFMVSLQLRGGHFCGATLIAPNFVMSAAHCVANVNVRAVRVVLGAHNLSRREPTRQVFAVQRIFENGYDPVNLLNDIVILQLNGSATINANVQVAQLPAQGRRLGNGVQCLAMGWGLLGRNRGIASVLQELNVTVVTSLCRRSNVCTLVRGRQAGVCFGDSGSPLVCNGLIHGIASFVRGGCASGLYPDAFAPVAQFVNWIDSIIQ

[5] = target: Trypsin, Iodination grade, from human pancreas (human, UniProt P07477 24-247)
[6] = target: Chymotrypsin, from human pancreas (human, UniProt P17538 19-263)
Chymase, from human skin = target: T3, Chymase, from human skin (human, UniProt P23946 22-247)
T3 sequence (looked up): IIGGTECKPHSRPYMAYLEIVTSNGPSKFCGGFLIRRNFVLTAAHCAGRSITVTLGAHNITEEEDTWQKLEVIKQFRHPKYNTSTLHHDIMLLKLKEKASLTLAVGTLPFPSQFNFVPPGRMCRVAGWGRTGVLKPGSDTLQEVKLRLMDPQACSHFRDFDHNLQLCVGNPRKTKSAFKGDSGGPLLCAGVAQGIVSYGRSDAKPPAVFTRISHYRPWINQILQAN

[7] = target: Thrombin, from Human Plasma, high activity (human, UniProt P00734 328-622)

Sequence of Tryptase, from human lung (Q15661 31-275 limits assumed): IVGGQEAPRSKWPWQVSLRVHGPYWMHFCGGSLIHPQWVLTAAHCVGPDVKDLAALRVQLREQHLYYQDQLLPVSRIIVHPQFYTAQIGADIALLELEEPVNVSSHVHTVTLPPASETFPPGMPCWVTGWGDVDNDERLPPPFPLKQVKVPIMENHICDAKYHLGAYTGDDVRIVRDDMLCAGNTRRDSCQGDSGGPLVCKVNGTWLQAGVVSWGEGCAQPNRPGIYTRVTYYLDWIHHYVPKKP
Sequence of Chymotrypsin, from human pancreas (P17538 19-263): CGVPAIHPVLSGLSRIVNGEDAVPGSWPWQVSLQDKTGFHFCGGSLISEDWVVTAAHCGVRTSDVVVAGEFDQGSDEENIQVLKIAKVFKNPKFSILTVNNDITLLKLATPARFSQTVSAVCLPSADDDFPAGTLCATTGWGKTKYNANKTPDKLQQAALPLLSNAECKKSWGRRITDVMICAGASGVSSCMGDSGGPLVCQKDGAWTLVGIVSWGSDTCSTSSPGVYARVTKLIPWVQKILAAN

| Binder | IC50 [1] [nmol] | % inhibition at 100 µM [2] [%] | % inhibition at 100 µM [3] [%] | IC50 [4] [nmol] | % inhibition at 100 µM [5] [%] | % inhibition at 100 µM [6] [%] | % inhibition at 100 µM (Chymase, from human skin) [%] | % inhibition at 100 µM [7] [%] |
| --- | --- | --- | --- | --- | --- | --- | --- | --- |
| cyclo([Nle]CTKSDPPICT[dP]P) (disulfide 2-10) [Example 42] | 46 | 7 | 0 |  |  |  |  |  |
| B1 | 55 | 5.7 | 3.8 | > 100000 | 84 | 0 | 98.8 |  |
| B2 | 55 |  | 90.4 | > 100000 | 90 | 16 | 27.6 | 0 |
| B3 | 55 | 5.7 | 3.8 | > 100000 | 84 | 0 | 98.8 |  |
| B4 | 47 |  | 88.3 | > 100000 | 84 | 25 | 32.5 | 0 |
| B5 | 35 | 5 | 56 |  |  |  |  |  |
| B6 | 41 | 0 | 73.3 |  |  |  |  |  |
| B7 | 55 |  | 90.4 | > 100000 | 90 | 16 | 27.6 |  |
| B8 | 47 | 1 | 57 |  |  |  |  |  |
